Reference: patent publication US20160251435A1 (INHIBRX, published 2016)

Tests used:
[1] = target: human CD47, endogenous cell surface form (Raji, CCRF-CEM cells) (human) (UniProt Q08722); assay: cell-based or functional assay
[2] = target: human CD47, endogenous cell surface form (Raji, CCRF-CEM cells) (human) (UniProt Q08722); assay: flow cytometry on CCRF-CEM cells, FITC anti-mouse IgG, MFI-FL1
[3] = target: human CD47, endogenous cell surface form (Raji, CCRF-CEM cells) (human) (UniProt Q08722); assay: apparent KD, flow cytometry on Raji cells, non-linear fit of median fluorescence
[4] = target: human CD47, endogenous cell surface form (Raji, CCRF-CEM cells) (human) (UniProt Q08722); assay: flow cytometry blocking: SIRPa-Fc binding to CCRF-CEM cells with rising antibody
[5] = target: T1, human CD47, endogenous cell surface form (Raji, CCRF-CEM cells) (human, UniProt Q08722 19-323); assay: flow cytometry on CCRF-CEM cells, FITC anti-mouse IgG, MFI-FL1
T1 construct: the cells carry endogenous CD47; also called cell surface CD47
From the text: Bound CD47 antibodies were detected using a FITC conjugated anti-mouse IgG secondary antibody (Jackson ImmunoResearch).

[6] = target: T1, human CD47, endogenous cell surface …; assay: apparent KD, flow cytometry on Raji cells, non-linear fit of median fluorescence
[7] = target: T1, human CD47, endogenous cell surface …; assay: flow cytometry blocking: SIRPa-Fc binding to CCRF-CEM cells with rising antibody
[8] = target: T2, recombinant His-tagged-CD47-IgV (human, UniProt Q08722 19-134); assay: blocking ELISA: SIRPa-Fc binding to immobilised His-CD47-IgV with rising antibody
T2 construct: not shown: His tag

[9] = target: T1, human CD47, endogenous cell surface …; assay: flow cytometry on Raji cells (CD20-gated), signal normalised to the maximum of the antibody on that cell population
Method: (§1) Cynomolgus peripheral blood mononuclear cells (PBMCs) were isolated from cynomolgus whole blood by ficoll-paque gradient centrifugation. […] Cells were analyzed by flow cytometry, first gated on live cells by FSC and SSC, then on cells positive for FL4 (CD20 positive), and lastly the median FL1 (CD47 positive) was measured. The data were normalized by dividing the signal at each concentration by the maximum signal for each antibody on each cell population.

[10] = target: T3, cynomolgus monkey CD47 on cynomolgus B-cells (cynomolgus monkey, UniProt A0A5F8AK49 19-323 (rhesus entry)); assay: flow cytometry on cynomolgus B-cells (CD20-gated PBMC), signal normalised to the maximum of the antibody on that cell population
T3 construct: whole, on cells; also called cyno CD47
Method: as §1

| phagocytosis of CFSE-labeled CCRF-CEM tumor cells by human monocyte derived macrophages [1] [pM] | EC50 (read off the curve) [2] [nM] | Kd [3] [nM] | IC50 (read off the curve) [4] [nM] | EC50 (read off the curve) [5] [nM] | Kd [6] [nM] | IC50 (read off the curve) [7] [nM] | IC50 (read off the curve) [8] [nM] | EC50 (read off the curve) [9] [nM] | EC50 (read off the curve) [10] [nM] | Binder |
| --- | --- | --- | --- | --- | --- | --- | --- | --- | --- | --- |
| > 66.7 | 3 | 3.79 | 9 |  |  |  |  |  |  | B6H12 CD47 antibody (antibody, from another filing, V domains shown) VH: EVKLVESGGDLVKPGGSLKLSCAASGFTFSGYGMSWVRQTPDKRLEWVATITSGGTYTYYPDSVKGRFTISRDNAKNTLYLQIDSLKSEDTAIYFCARSLAGNAMDYWGQGTSVTVSS VL: DIVMTQSPATLSVTPGDRVSLSCRASQTISDYLHWYQQKSHESPRLLIKFASQSISGIPSRFSGSGSGSDFTLSINSVEPEDVGVYYCQNGHGFPRTFGGGTKLEIK |
|  |  |  |  | ~0.4 | 0.0936 | ~0.7 | ~5 | ~0.4 | ~0.4 | murine CD47 antibody 2A1 (antibody, mouse IgG1, V domains shown, Hybridoma-derived mouse IgG1; also called 2A1-mIgG1; 2A1mIgG1) VH: EVQLQQSGAELVRSGASVKLSCTASGFNIKDYYLHWVKQRPEQGLEWIGWIDPDNGDTEFAPKFQGKATMTADTSSNTAYLQLSSLTSEDTAVYYCNAAYGSSSYPMDYWGQGTSVTV VL: DIKMTQSPSSLYASLGERVTITCKASQDIHRYLSWFQQKPGKSPKILIYRANRLVDGVPSRFSGSGSGQDYSLTISSLEYEDMGIYYCLQYDEFPYTFGGGTKLEMK |
